Among the data in patent EP4733393A1 (Todo, Tomoki, dated 2026) are IC50 values, retold here.

Assay [1] concerns the target T1, human CTLA-4 (human, UniProt P16410 36-161).
T1 sequence (looked up): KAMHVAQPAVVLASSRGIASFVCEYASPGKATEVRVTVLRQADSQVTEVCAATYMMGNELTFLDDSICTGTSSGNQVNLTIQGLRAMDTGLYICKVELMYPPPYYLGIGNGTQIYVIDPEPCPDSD
The assay can be described thus: AlphaLISA Human CTLA-4/CD80 Binding Kit, inhibition of human CTLA-4/CD80 (B7-1) binding; concentration as human Fc (Fig. 7-3-2 B).

The next assay addresses T2, mouse PD-1 (mouse, UniProt Q02242 25-167).
T2 sequence (looked up): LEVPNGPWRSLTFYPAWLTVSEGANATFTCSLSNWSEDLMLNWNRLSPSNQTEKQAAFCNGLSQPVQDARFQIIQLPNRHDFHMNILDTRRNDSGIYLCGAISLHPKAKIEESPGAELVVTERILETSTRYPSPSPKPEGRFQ
The experiment in a line: AlphaLISA Mouse PD-1 and PD-L1 Binding Kit, inhibition of mouse PD-1/PD-L1 binding; concentration as human Fc (Fig. 1-3-1 B). For orientation: Alpha assays give light when donor and acceptor beads are brought close together.

In assay [2] the target is T1, human CTLA-4. The experiment in a line: AlphaLISA Human CTLA-4/CD80 Binding Kit, inhibition of human CTLA-4/CD80 (B7-1) binding; concentration as human Fc (Fig. 7-3-1 B).

B1: anti-human CTLA4 antibody (derived from ticilimumab), expressed from the Tic/SV-01 plasmid (antibody, human IgG2, kappa, V domains shown)
VH: QVQLVESGGGVVQPGRSLRLSCAASGFTFSSYGMHWVRQAPGKGLEWVAVIWYDGSNKYYADSVKGRFTISRDNSKNTLYLQMNSLRAEDTAVYYCARDPRGATLYYYYYGMDVWGQGTTVTVSS
VL: DIQMTQSPSSLSASVGDRVTITCRASQSINSYLDWYQQKPGKAPKLLIYAASSLQSGVPSRFSGSGSGTDFTLTISSLQPEDFATYYCQQYYSTPFTFGPGTKVEIKR
notes: also called antibody encoded by T-Tic; derived from ticilimumab (tremelimumab)
On to B1, for which the concentration for half-maximal inhibition (IC50) – broadly, the concentration at which inhibition is half-maximal – with human CTLA-4 [1] was found to be 25.4 ng/mL.

B2: anti-mouse PD-1 antibody (derived from J43) with human IgG4 heavy chain constant region and human λ light chain constant region, expressed from the J43/SV-01 … (antibody, V domains shown)
VH: EVRLLESGGGLVKPEGSLKLSCVASGFTFSDYFMSWVRQAPGKGLEWVAHIYTKSYNYATYYSGSVKGRFTISRDDSRSMVYLQMNNLRTEDTATYYCTRDGSGYPSLDFWGQGTQVTVSS
VL: YELTQPPSASVVGETVKITCSGDQLPKYFADWFHQRSDQTILQVIYDDNKRPSGIPERISGSSSGTTATLTIRDVRAEDEGDYYCFSGYVDSDSKLYVFGSGTQLTVLG
notes: also called antibody encoded by T-J43
As to B2, in the assay with mouse PD-1, the IC50 was 6.81 ng/mL.

B3: anti-human CTLA4 antibody (derived from ipilimumab), expressed from the Ipi/SV-01 plasmid (antibody, human IgG1, kappa, V domains shown)
VH: QVQLVESGGGVVQPGRSLRLSCAASGFTFSSYTMHWVRQAPGKGLEWVTSISYDGNNKYYADSVKGRFTISRDNSKNTLYLQMNSLRAEDTAIYYCARTGWLGPFDYWGQGTLVTVSS
VL: not shown
notes: also called antibody encoded by T-Ipi
Take B3: the IC50 with human CTLA-4 [2] turned out to be 8.24 ng/mL.
